Tests used:
HLA-B*08:01 = biological target: T1, HLA-B*08:01 (human); experiment: REVEAL MHC-peptide binding assay, recombinant HLA-B*08:01
T1 construct: Recombinant MHC class I molecule without the test peptide; the peptide is the other partner
Method: (§1) Specifically, assessment was of a series of overlapping 9-mer peptides derived from the sequence […] (set forth in SEQ ID NO: 7), which contains a portion of the CD28 transmembrane domain and 4-1BB costimulatory domain spanning the junction between the domains (bond joining the two amino acids noted in underline). In addition, a series of overlapping 9-mer peptides of each of a number of different variants of this portion also were assessed, each variant containing a mutation or mutations in this region as described in Example 2.
(§2) The various 9-mer overlapping peptides were synthesized and their purity tested by MALDI-TOF Mass Spectrometry.

HLA-A*11:01 = biological target: T2, HLA-A*11:01 (human); experiment: REVEAL MHC-peptide binding assay, recombinant HLA-A*11:01
T2 construct: Recombinant MHC class I molecule without the test peptide; the peptide is the other partner
Method: as §1, §2

Binder: FIIFWVKRG (synthetic 9-mer) [FIIFWVKRG (SEQ ID NO: 18)]
- In Vitro Score (HLA-B*08:01): 0.1 % of positive control peptide
- In Vitro Score (HLA-A*11:01): 0.4 % of positive control peptide

B1: FIIFWVLRG (SEQ ID NO: 32) (peptide)
peptide: FIIFWVLRG
notes: synthetic 9-mer; the entry already carries the mutation
- In Vitro Score (HLA-B*08:01): 0.2 % of positive control peptide
- In Vitro Score (HLA-A*11:01): 2.4 % of positive control peptide

B2: FIIFWVQRG (SEQ ID NO: 52) (peptide)
peptide: FIIFWVQRG
notes: as for B1
- In Vitro Score (HLA-B*08:01): 0.6 % of positive control peptide
- In Vitro Score (HLA-A*11:01): 1.5 % of positive control peptide

B3: FIIFWVSRG (SEQ ID NO: 25) (peptide)
peptide: FIIFWVSRG
notes: as for B1
- In Vitro Score (HLA-B*08:01): 0.4 % of positive control peptide
- In Vitro Score (HLA-A*11:01): 5.1 % of positive control peptide

Binder: WVKRGRKKL (synthetic 9-mer) [WVKRGRKKL (SEQ ID NO: 22)]
- In Vitro Score (HLA-B*08:01): 28.5 % of positive control peptide
- In Vitro Score (HLA-A*11:01): 4.8 % of positive control peptide

B4: WVKRGLKKL (SEQ ID NO: 64) (peptide)
peptide: WVKRGLKKL
notes: as for B1
- In Vitro Score (HLA-B*08:01): 65.7 % of positive control peptide
- In Vitro Score (HLA-A*11:01): 22.1 % of positive control peptide

B5: WVQRGAKKL (SEQ ID NO: 84) (peptide)
peptide: WVQRGAKKL
notes: synthetic 9-mer; the entry already carries the mutations
- In Vitro Score (HLA-B*08:01): 11.4 % of positive control peptide
- In Vitro Score (HLA-A*11:01): 3.8 % of positive control peptide

B6: WVHRGRKKL (SEQ ID NO: 43) (peptide)
peptide: WVHRGRKKL
notes: as for B1
- In Vitro Score (HLA-B*08:01): 19.2 % of positive control peptide
- In Vitro Score (HLA-A*11:01): 5.6 % of positive control peptide

B7: WVSRGRKKL (SEQ ID NO: 29) (peptide)
peptide: WVSRGRKKL
notes: as for B1
- In Vitro Score (HLA-B*08:01): 6.2 % of positive control peptide
- In Vitro Score (HLA-A*11:01): 4.4 % of positive control peptide

B8: WVKRGRKKS (SEQ ID NO: 89) (peptide)
peptide: WVKRGRKKS
notes: as for B1
- In Vitro Score (HLA-B*08:01): 4.3 % of positive control peptide
- In Vitro Score (HLA-A*11:01): 6.7 % of positive control peptide

B9: WVLRGRKKL (SEQ ID NO: 36) (peptide)
peptide: WVLRGRKKL
notes: as for B1
- In Vitro Score (HLA-B*08:01): 4 % of positive control peptide
- In Vitro Score (HLA-A*11:01): 3.2 % of positive control peptide

B10: WVQRGSKKL (SEQ ID NO: 80) (peptide)
peptide: WVQRGSKKL
notes: as for B5
- In Vitro Score (HLA-A*11:01): 5.9 % of positive control peptide

Binder: FWVKRGRKK (synthetic 9-mer) [FWVKRGRKK (SEQ ID NO: 21)]
- In Vitro Score (HLA-B*08:01): 0 % of positive control peptide
- In Vitro Score (HLA-A*11:01): 6.5 % of positive control peptide

B11: FWVKRGLKK (SEQ ID NO: 63) (peptide)
peptide: FWVKRGLKK
notes: as for B1
- In Vitro Score (HLA-A*11:01): 25.3 % of positive control peptide

B12: FWVQRGNKK (SEQ ID NO: 87) (peptide)
peptide: FWVQRGNKK
notes: as for B5
- In Vitro Score (HLA-B*08:01): 0 % of positive control peptide
- In Vitro Score (HLA-A*11:01): 5.9 % of positive control peptide

B13: FWVKRGAKK (SEQ ID NO: 71) (peptide)
peptide: FWVKRGAKK
notes: as for B1
- In Vitro Score (HLA-B*08:01): 0.3 % of positive control peptide
- In Vitro Score (HLA-A*11:01): 13.2 % of positive control peptide

B14: FWVQRGSKK (SEQ ID NO: 79) (peptide)
peptide: FWVQRGSKK
notes: as for B5
- In Vitro Score (HLA-B*08:01): 0 % of positive control peptide
- In Vitro Score (HLA-A*11:01): 6.8 % of positive control peptide

B15: FWVLRGRKK (SEQ ID NO: 35) (peptide)
peptide: FWVLRGRKK
notes: as for B1
- In Vitro Score (HLA-B*08:01): 0 % of positive control peptide
- In Vitro Score (HLA-A*11:01): 5 % of positive control peptide

B16: FWVKRGSKK (SEQ ID NO: 59) (peptide)
peptide: FWVKRGSKK
notes: as for B1
- In Vitro Score (HLA-B*08:01): 0.1 % of positive control peptide
- In Vitro Score (HLA-A*11:01): 5.6 % of positive control peptide

B17: FWVHRGRKK (SEQ ID NO: 42) (peptide)
peptide: FWVHRGRKK
notes: as for B1
- In Vitro Score (HLA-B*08:01): 0 % of positive control peptide
- In Vitro Score (HLA-A*11:01): 5.6 % of positive control peptide

B18: FWVARGRKK (SEQ ID NO: 48) (peptide)
peptide: FWVARGRKK
notes: as for B1
- In Vitro Score (HLA-B*08:01): 0 % of positive control peptide

B19: FWVSRGRKK (SEQ ID NO: 28) (peptide)
peptide: FWVSRGRKK
notes: as for B1
- In Vitro Score (HLA-B*08:01): 0 % of positive control peptide
- In Vitro Score (HLA-A*11:01): 6.3 % of positive control peptide

B20: FWVKRGNKK (SEQ ID NO: 75) (peptide)
peptide: FWVKRGNKK
notes: as for B1
- In Vitro Score (HLA-B*08:01): 0.1 % of positive control peptide
- In Vitro Score (HLA-A*11:01): 7.3 % of positive control peptide

B21: FWVKRGHKK (SEQ ID NO: 67) (peptide)
peptide: FWVKRGHKK
notes: as for B1
- In Vitro Score (HLA-B*08:01): 0.4 % of positive control peptide
- In Vitro Score (HLA-A*11:01): 27.6 % of positive control peptide

B22: FWVQRGAKK (SEQ ID NO: 83) (peptide)
peptide: FWVQRGAKK
notes: as for B5
- In Vitro Score (HLA-B*08:01): 0 % of positive control peptide
- In Vitro Score (HLA-A*11:01): 18.3 % of positive control peptide

B23: FWVQRGRKK (SEQ ID NO: 55) (peptide)
peptide: FWVQRGRKK
notes: as for B1
- In Vitro Score (HLA-B*08:01): 1.9 % of positive control peptide
- In Vitro Score (HLA-A*11:01): 5.7 % of positive control peptide

B24: IIFWVKRGH (SEQ ID NO: 65) (peptide)
peptide: IIFWVKRGH
notes: as for B1
- In Vitro Score (HLA-B*08:01): 0.1 % of positive control peptide
- In Vitro Score (HLA-A*11:01): 19.5 % of positive control peptide

B25: IIFWVQRGS (SEQ ID NO: 77) (peptide)
peptide: IIFWVQRGS
notes: as for B5
- In Vitro Score (HLA-B*08:01): 0.1 % of positive control peptide
- In Vitro Score (HLA-A*11:01): 16.9 % of positive control peptide

B26: IIFWVQRGN (SEQ ID NO: 85) (peptide)
peptide: IIFWVQRGN
notes: as for B5
- In Vitro Score (HLA-B*08:01): 0 % of positive control peptide
- In Vitro Score (HLA-A*11:01): 29 % of positive control peptide

B27: VAFIIFWVA (SEQ ID NO: 44) (peptide)
peptide: VAFIIFWVA
notes: as for B1
- In Vitro Score (HLA-A*11:01): 2.8 % of positive control peptide

B28: VAFIIFWVH (SEQ ID NO: 37) (peptide)
peptide: VAFIIFWVH
notes: as for B1
- In Vitro Score (HLA-B*08:01): 0 % of positive control peptide
- In Vitro Score (HLA-A*11:01): 12.3 % of positive control peptide

B29: VAFIIFWVQ (SEQ ID NO: 50) (peptide)
peptide: VAFIIFWVQ
notes: as for B1
- In Vitro Score (HLA-A*11:01): 3.9 % of positive control peptide

Binder: IFWVKRGRK (synthetic 9-mer) [IFWVKRGRK (SEQ ID NO: 20)]
- In Vitro Score (HLA-B*08:01): 0.4 % of positive control peptide
- In Vitro Score (HLA-A*11:01): 29.3 % of positive control peptide

B30: IFWVLRGRK (SEQ ID NO: 34) (peptide)
peptide: IFWVLRGRK
notes: as for B1
- In Vitro Score (HLA-B*08:01): 0 % of positive control peptide
- In Vitro Score (HLA-A*11:01): 29.3 % of positive control peptide

B31: IFWVQRGSK (SEQ ID NO: 78) (peptide)
peptide: IFWVQRGSK
notes: as for B5
- In Vitro Score (HLA-B*08:01): 0 % of positive control peptide
- In Vitro Score (HLA-A*11:01): 103 % of positive control peptide

Binder: AFIIFWVKR (synthetic 9-mer) [AFIIFWVKR (SEQ ID NO: 17)]
- In Vitro Score (HLA-B*08:01): 1.9 % of positive control peptide
- In Vitro Score (HLA-A*11:01): 25.9 % of positive control peptide

B32: AFIIFWVLR (SEQ ID NO: 31) (peptide)
peptide: AFIIFWVLR
notes: as for B1
- In Vitro Score (HLA-B*08:01): 0.2 % of positive control peptide
- In Vitro Score (HLA-A*11:01): 17.2 % of positive control peptide

B33: AFIIFWVQR (SEQ ID NO: 51) (peptide)
peptide: AFIIFWVQR
notes: as for B1
- In Vitro Score (HLA-B*08:01): 0 % of positive control peptide
- In Vitro Score (HLA-A*11:01): 15 % of positive control peptide

Source: patent US20180355014A1 (JUNO THERAPEUTICS, published 2018)
